Experiments:
[1] = tested on: TALED psaA Left (TALE array-split DddAtox/TadA-derived AD) (synthetic construct); assay: cell_activity; settings: pair with P4; A6 14.66 and 12.27, A5 10.67 and 7.68; lettuce protoplasts 7 days after mRNA; callus A5 8.4 and 7.5, A6 12.2 and 10.0
[2] = tested on: TALED psaA Right (TALE array-split DddAtox/TadA-derived AD) (synthetic construct); assay: cell_activity; settings: pair with P3; A6 14.66 and 12.27, A5 10.67 and 7.68; lettuce protoplasts 7 days after mRNA

| Substance | activity [1] | activity [2] |
| --- | --- | --- |
| lettuce chloroplast psaA start codon, left half-site | 14.7 % editing | – |
| lettuce chloroplast psaA start codon, right half-site | – | 14.7 % editing |

From patent US20250223606
